Results: PMC1289080

B1: sR47 mut C/D and C'/D' (structured_RNA)
RNA: GAUGAAGAUUCUGAGCUCGGCAGGUCCUUCGGAGUUCUGAGGAUCUUGAGUGCUUCUUCACCUU

target: T1, L7Ae (Pyrococcus abyssi, UniProt P62008 1-123); experiment: EMSA

Binding result, no binding:
GGGACUGACCAGUGAUGACCC (structured_RNA) [sR6 CCA spacer]
GGGACUGAGGGUGAUGACCC (structured_RNA) [sR6 2-nt spacer GG]

target: T1, L7Ae; experiment: EMSA; remark: another data set of the same source

Binding result, no binding:
GGGACUGAGCAUUGAUGACCC (structured_RNA) [sR6 L2]
GGGACUUCGCAGUUCUGACCC (structured_RNA) [sR6 mut C'/D']
B1
GGGACUGACCCGUGAUGACCC (structured_RNA) [sR6 LC]
